This note sets out measurements from patent publication US20220135638A1 (Takeda / Millennium, published 2022).

Numbered stars: 1 amine (or outer) side, 2 acyl side, 3 side chain; on linkers, the order of the positions; unused ones are H or OH. Square brackets hold non-standard residues; d marks the D form. Primed or numbered codes have the meaning given here. Side chains are listed from the residue outwards. Ends that are not written are not given here. * marks the point of attachment. C20 diacid = O=C(O)CCCCCCCCCCCCCCCCCCC(=O)*; C18 diacid = O=C(O)CCCCCCCCCCCCCCCCC(=O)*; C16 diacid = O=C(O)CCCCCCCCCCCCCCC(=O)*; γGlu = O=C(O)[C@H](CCC(=O)[*:2])N[*:1]; Iva = CC[C@](C)(N)C(=O)O; PEG3′ = not defined here; Aib = CC(C)(N)C(=O)O

Experiment [1] deals with T1, full-length human GIPR (GenBank NM_000164) with an N-terminal FLAG tag on HEK-293T cells (human), P48546.
T1 chain: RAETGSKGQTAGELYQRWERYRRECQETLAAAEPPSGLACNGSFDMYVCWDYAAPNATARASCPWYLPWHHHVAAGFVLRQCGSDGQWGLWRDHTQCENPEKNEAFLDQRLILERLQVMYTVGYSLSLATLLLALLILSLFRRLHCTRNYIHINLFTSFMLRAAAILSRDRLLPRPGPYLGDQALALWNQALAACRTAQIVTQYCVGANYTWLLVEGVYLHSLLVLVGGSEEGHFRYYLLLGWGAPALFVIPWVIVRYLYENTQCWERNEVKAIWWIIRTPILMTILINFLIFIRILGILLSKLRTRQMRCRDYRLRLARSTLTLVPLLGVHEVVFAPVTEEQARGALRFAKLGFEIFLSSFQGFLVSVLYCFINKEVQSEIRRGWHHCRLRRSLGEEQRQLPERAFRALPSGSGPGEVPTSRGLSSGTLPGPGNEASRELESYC
The experiment in a line: cell-based or functional assay.

The target in experiment [2] is T2, full-length human GLP-1R (GenBank NM_002062) with an N-terminal FLAG tag on HEK-293T cells (human), P43220.
T2 chain: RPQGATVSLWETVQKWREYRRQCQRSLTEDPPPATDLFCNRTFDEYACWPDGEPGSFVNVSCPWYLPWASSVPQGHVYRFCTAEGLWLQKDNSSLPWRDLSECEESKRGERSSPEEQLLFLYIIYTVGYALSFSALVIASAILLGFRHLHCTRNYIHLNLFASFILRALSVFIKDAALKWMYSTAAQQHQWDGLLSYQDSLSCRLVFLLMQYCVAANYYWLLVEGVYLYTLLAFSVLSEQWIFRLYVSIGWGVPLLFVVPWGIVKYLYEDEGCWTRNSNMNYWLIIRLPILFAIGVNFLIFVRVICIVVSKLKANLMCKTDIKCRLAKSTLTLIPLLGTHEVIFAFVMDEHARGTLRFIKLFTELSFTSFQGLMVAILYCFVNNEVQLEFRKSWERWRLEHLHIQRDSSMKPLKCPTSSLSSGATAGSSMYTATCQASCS
The experiment in a line: cell-based or functional assay.

In experiment [1], Y[Aib]EGTFISDYSIALDR[Aib]HQ[Aib]NFVNW[Iva]LAQRPK([Gly-Gly-Gly-Gly-Gly-γGlu-C16 diacid])SGAPPPS (ends and bridges not checked) [Compound No. 441] returned a GIP EC50(pM) of 0.33 pM. This molecule yielded a GLP EC50 in experiment [2] greater than 1000 nM. In the same order, the values of Y[Aib]EGTFISDYSIALDR[Aib]HQ[Aib]NFVNW[Iva]LAQRPSK([Gly-Gly-Gly-Gly-Gly-γGlu-C16 diacid])GAPPPS (ends and bridges not checked) [Compound No. 444] are 0.39 pM and greater than 1000 nM. In the same order, the values of Y[Aib]EGTFISDYSIALDR[Aib]HQ[Aib]NFVNW[Iva]LAQRPSK([Gly-Gly-Gly-Gly-Gly-γGlu-C20 diacid])GAPPPS (ends and bridges not checked) [Compound No. 446] are 0.85 pM and 891 nM. In experiment [1], Y[Aib]EGTFISDYSIALDR[Aib]HQ[Aib]NFVNW[Iva]LAQRPSSGAPPK([Gly-Gly-Gly-Gly-Gly-γGlu-C16 diacid])S (ends and bridges not checked) [Compound No. 459] yielded a GIP EC50(pM) of 0.41 pM. For the same molecule, the GLP EC50 in experiment [2] was greater than 1000 nM.

The molecule Y[Aib]EGTFISDYSIALDR[Aib]HQ[Aib]NFVNW[Iva]LAQRPK([Gly-Gly-Gly-Gly-Gly-γGlu-C20 diacid])SGAPPPS (ends and bridges not checked) [Compound No. 443] displayed a GIP EC50(pM) in experiment [1] of 0.86 pM. In experiment [2], this molecule showed a GLP EC50 of 977 nM. In the same order, the values of Y[Aib]EGTFISDYSIALDR[Aib]HQ[Aib]NFVNW[Iva]LAQRPSSGAK([Gly-Gly-Gly-Gly-Gly-γGlu-C18 diacid])PPS (ends and bridges not checked) [Compound No. 454] are 1.14 pM and greater than 1000 nM.

For Y[Aib]EGTFISDYSIALDR[Aib]HQ[Aib]NFVNW[Iva]LAQRPSSGAK([Gly-Gly-Gly-Gly-Gly-γGlu-C20 diacid])PPS (ends and bridges not checked) [Compound No. 455], in experiment [1], the GIP EC50(pM) turned out to be 2.24 pM. In experiment [2], this molecule showed a GLP EC50 greater than 1000 nM. Y[Aib]EGTFISDYSIALDR[Aib]HQ[Aib]NFVNW[Iva]LAQRPSSGAK([Gly-Gly-Gly-Gly-Gly-γGlu-C16 diacid])PPS (ends and bridges not checked) [Compound No. 453]: in experiment [1], the GIP EC50(pM) is 0.6 pM. In experiment [2], the GLP EC50 was greater than 1000 nM. In turn, Y[Aib]EGTFISDYSIALDR[Aib]HQ[Aib]NFVNW[Iva]LAQRPSSGAPK([Gly-Gly-Gly-Gly-Gly-γGlu-C20 diacid])PS (ends and bridges not checked) [Compound No. 458] displayed a GIP EC50(pM) in experiment [1] of 1.31 pM. The molecule further returned a GLP EC50 in experiment [2] greater than 1000 nM. In experiment [1], Y[Aib]EGTFISDYSIALDR[Aib]HQ[Aib]NFVNW[Iva]LAQRPSSK([Gly-Gly-Gly-Gly-Gly-γGlu-C16 diacid])APPPS (ends and bridges not checked) [Compound No. 447] showed a GIP EC50(pM) of 0.31 pM. The same molecule had a GLP EC50 in experiment [2] greater than 1000 nM. As for Y[Aib]EGTFISDYSIALDR[Aib]HQ[Aib]NFVNW[Iva]LAQRK([PEG3′-PEG3′-C20 diacid])SSGAPPPSR (ends and bridges not checked) [Compound No 913], the GLP EC50 in experiment [2] was found to be 575 nM. Molecule Y[Aib]EGTFISDYSIALDR[Aib]HQ[Aib]NFVNW[Iva]LAQRPSSGAPPK([Gly-Gly-Gly-Gly-Gly-γGlu-C18 diacid])S (ends and bridges not checked) [Compound No. 460] returned a GIP EC50(pM) in experiment [1] of 0.44 pM. The same molecule had a GLP EC50 in experiment [2] greater than 1000 nM.

Y[Aib]EGTFISDYSIALDR[Aib]HQ[Aib]NFVNW[Iva]LAQRPSSK([Gly-Gly-Gly-Gly-Gly-γGlu-C20 diacid])APPPS (ends and bridges not checked) [Compound No. 449] displayed a GIP EC50(pM) in experiment [1] of 0.65 pM. Further, the GLP EC50 in experiment [2] is 912 nM. In turn, Y[Aib]EGTFISDYSIALDR[Aib]HQ[Aib]NFVNW[Iva]LAQRPSSGK([Gly-Gly-Gly-Gly-Gly-γGlu-C18 diacid])PPPS (ends and bridges not checked) [Compound No. 451] displayed a GIP EC50(pM) in experiment [1] of 0.74 pM. In experiment [2], the GLP EC50 is greater than 1000 nM. In the same order, the values of Y[Aib]EGTFISDYSIALDR[Aib]HQ[Aib]NFVNW[Iva]LAQRPSSGAPPK([Gly-Gly-Gly-Gly-Gly-γGlu-C20 diacid])S (ends and bridges not checked) [Compound No. 461] are 1.3 pM and greater than 1000 nM. In the same order, the values of Y[Aib]EGTFISDYSIALDR[Aib]HQ[Aib]NFVNW[Iva]LAQRPSSGK([Gly-Gly-Gly-Gly-Gly-γGlu-C20 diacid])PPPS (ends and bridges not checked) [Compound No. 452] are 2.17 pM and greater than 1000 nM. In the same order, the values of Y[Aib]EGTFISDYSIALDR[Aib]HQ[Aib]NFVNW[Iva]LAQRPSSK([Gly-Gly-Gly-Gly-Gly-γGlu-C18 diacid])APPPS (ends and bridges not checked) [Compound No. 448] are 0.54 pM and greater than 1000 nM. The molecule Y[Aib]EGTFISDYSIALDR[Aib]HQ[Aib]NFVNW[Iva]LAQRPSK([Gly-Gly-Gly-Gly-Gly-γGlu-C18 diacid])GAPPPS (ends and bridges not checked) [Compound No. 445] came in with a GIP EC50(pM) in experiment [1] of 0.38 pM. This molecule came in with a GLP EC50 in experiment [2] greater than 1000 nM. In the same order, the values of Y[Aib]EGTFISDYSIALDR[Aib]HQ[Aib]NFVNW[Iva]LAQRPSSGAPK([Gly-Gly-Gly-Gly-Gly-γGlu-C16 diacid])PS (ends and bridges not checked) [Compound No. 456] are 0.57 pM and greater than 1000 nM. Y[Aib]EGTFISDYSIALDR[Aib]HQ[Aib]NFVNW[Iva]LAQRPSSGAPPPK([Gly-Gly-Gly-Gly-Gly-γGlu-C16 diacid]) (ends and bridges not checked) [Compound No. 462] came in with a GIP EC50(pM) in experiment [1] of 0.35 pM. Also, the GLP EC50 in experiment [2] is greater than 1000 nM. In the same order, the values of Y[Aib]EGTFISDYSIALDR[Aib]HQ[Aib]NFVNW[Iva]LAQRPSSGAPPPK([Gly-Gly-Gly-Gly-Gly-γGlu-C18 diacid]) (ends and bridges not checked) [Compound No. 463] are 0.52 pM and greater than 1000 nM.

Molecule Y[Aib]EGTFISDYSIALDR[Aib]HQ[Aib]NFVNW[Iva]LAQRPSSGAPK([Gly-Gly-Gly-Gly-Gly-γGlu-C18 diacid])PS (ends and bridges not checked) [Compound No. 457] came in with a GIP EC50(pM) in experiment [1] of 0.82 pM. In addition, the GLP EC50 in experiment [2] was greater than 1000 nM. Molecule Y[Aib]EGTFISDYSIALDR[Aib]HQ[Aib]NFVNW[Iva]LAQRPK([Gly-Gly-Gly-Gly-Gly-γGlu-C18 diacid])SGAPPPS (ends and bridges not checked) [Compound No. 442] returned a GIP EC50(pM) in experiment [1] of 1.01 pM. Besides, in experiment [2], the GLP EC50 is greater than 1000 nM.

On to Y[Aib]EGTFISDYSIALDR[Aib]HQ[Aib]NFVNW[Iva]LAQRPSSGK([Gly-Gly-Gly-Gly-Gly-γGlu-C16 diacid])PPPS (ends and bridges not checked) [Compound No. 450], for which, in experiment [1], the GIP EC50(pM) turned out to be 0.4 pM. In experiment [2], this molecule registered a GLP EC50 greater than 1000 nM.
